We go through four molecules from patent US20240270814A1 (published 2024).

What all share (assay): activation reporter or marker
In assay [1] the target is T1, p53 wild type (Y220) peptide on HLA-DRB1*04:01 (human).
T1 peptide: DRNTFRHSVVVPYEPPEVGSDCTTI

Assay [2] has as its target T2, p53 Y220C peptide on HLA-DRB1*04:01 (human).
T2 peptide: RNTFRHSVVVPCE

The target in assay [3] is T3, p53 R248W peptide on HLA-A*68:01 (human).
T3 peptide: SSCMGGMNWR

B1: 4259-F6-TCR (TCR, V domains shown)
Valpha: QKEVEQNSGPLSVPEGAIASLNCTYSDRGSQSFFWYRQYSGKSPELIMFIYSNGDKEDGRFTAQLNKASQYVSLLIRDSQPSDSATYLCAWNSGGSNYKLTFGKGTLLTVNP
Vbeta: NAGVTQTPKFRVLKTGQSMTLLCAQDMNHEYMYWYRQDPGMGLRLIHYSVGEGTTAKGEVPDGYNVSRLKKQNFLLGLESAAPSQTSVYFCASSYSQAWGQPQHFGDGTRLSIL
Take B1: the binding result was “no recognition” in assay [1] and “recognises” in assay [2].

B2: 4266-TCR2 (TCR, V domains shown)
Valpha: GQNIDQPTEMTATEGAIVQINCTYQTSGFNGLFWYQQHAGEAPTFLSYNVLDGLEEKGRFSSFLSRSKGYSYLLLKELQMKDSASYLCAVYTGGFKTIFGAGTRLFVKA
Vbeta: EAGVAQSPRYKIIEKRQSVAFWCNPISGHATLYWYQQILGQGPKLLIQFQNNGVVDDSQLPKDRFSAERLKGVDSTLKIQPAKLEDSAVYLCASNLGGGSTDTQYFGPGTRLTVL
As to B2, the binding result in assay [3] is on record as “recognises”.

B3: 4266-TCR4 (TCR, V domains shown)
Valpha: GQNIDQPTEMTATEGAIVQINCTYQTSGFNGLFWYQQHAGEAPTFLSYNVLDGLEEKGRFSSFLSRSKGYSYLLLKELQMKDSASYLCAVYPGGSQGNLIFGKGTKLSVKP
Vbeta: EAGVAQSPRYKIIEKRQSVAFWCNPISGHATLYWYQQILGQGPKLLIQFQNNGVVDDSQLPKDRFSAERLKGVDSTLKIQPAKLEDSAVYLCASSLGTGSTDTQYFGPGTRLTVL
For the molecule B3, the binding result in assay [3] was “recognises”.

B4: 4266-TCR3 (TCR, V domains shown)
Valpha: GQNIDQPTEMTATEGAIVQINCTYQTSGFNGLFWYQQHAGEAPTFLSYNVLDGLEEKGRFSSFLSRSKGYSYLLLKELQMKDSASYLCAFYYGGSQGNLIFGKGTKLSVKP
Vbeta: GAGVSQSPRYKVAKRGQDVALRCDPISGHVSLFWYQQALGQGPEFLTYFQNEAQLDKSGLPSDRFFAERPEGSVSTLKIQRTQQEDSAVYLCASSFGSGSTDTQYFGPGTRLTVL
On to B4, for which the binding result in assay [3] is “recognises”.
